This data set concerns the molecule itself. The data set can be described thus: non-reducing SDS-PAGE.

B1: Thioredoxin-His-tagged OsbZIP47 full-length protein (natural protein, rice (Oryza sativa), UniProt Q5Z6N9 1-385, looked up)
chain: MAAHQGMAAATAADRFCLPRMAAAAAAASQVENWGDSGVIVSSPFTDDTSTDLDDSADKHHLHALVGGGDGGDDAGEQRGADSSAVSKERRGDQKMQRRLAQNREAARKSRMRKKAYIQQLESSRSKLMHLEQELQRARQQGIFIATGGSGDHGHSIGGNGTLAFDLEYARWLDEHQRHINDLRVALNAQMSDDELCELVDAVMMHYDQVFRLKSFATKSDVFHVLSGMWMSPAERFFMWLGGFRSSELLKVLASHLEPLTDQQLMGICNLQQSSQQAEDALSQGMEALQQTLGDTLVSAAATVVSGGGGADNVTNYMGQMAIAMAKLTTLENFLRQADLLRHQTLQQMHRILTTRQAARALLVISDYFSRLRALSSLWLARPRD
For B1, the binding result is “binds”.

Values taken from publication doi:10.1101/2021.05.11.443658 (bioRxiv, 2021).
